# Assay results as given in patent US11834499 (University of California, dated 2023).
# Residue numbers refer to the chain shown, from its start.
# B1: Ab 432 (antibody, V domains shown)
# VH: QIQLQQSGAELARPRASVKLSCKASGYTFTSDVISWVKQRPGQGLEWIGESYLRNGNTYYNENFKGKATLTADKSSSTAYMELRSLTSEDSAVYFCARSYYGNSFAYWGQGTLVTVSA
# VL: DIVMTQSPSSLTVTAREKVTMNCKSTQSLLNSGNQKNYLTWYQQKPGQPPKLLIYWASTRESGVPDRFTGSGSGTDFTLTISSVQAEDLAVYYCQNAYYYPFTFGGGTKLEIK
# notes: also called 432-Chim
# B2: Zolbetuximab (Benchmark 3) (antibody, V domains shown)
# VH: QVQLQQPGAELVRPGASVKLSCKASGYTFTSYWINWVKQRPGQGLEWIGNIYPSDSYTNYNQKFKDKATLTVDKSSSTAYMQLSSPTSEDSAVYYCTRSWRGNSFDYWGQGTTLTVSS
# VL: B1 VL with R16G, N22S, T26S, A97D, Y99S, G106S
# notes: also called zoletuximab
# B3: HuAb360-3 (antibody, V domains shown)
# VH: QVQLVQSGAEVKKPGASVKMSCKASGYTFTSYLMHWVRQAPGQGLEWIGYINPYNDGTNYAQKFQGRATLTSDTSTSTAYMELSSLRSEDTAVYYCTRGDYWGQGTLVTVSS
# VL: DIVMTQSPDSLAVSLGERATINCKSSQSLLNSGNQKNYLTWYQQKPGQPPKLLIYWASIRQSGVPDRFSGSGSGTDFTLTISSLQAEDVAVYYCLNDYGFPLTFGQGTKLEIK
# B4: HuAb360-4 (antibody, V domains shown)
# VH: B3 VH
# VL: B3 VL with A19V, I21M, L84V
# B5: HuAb360-5 (antibody, V domains shown)
# VH: B3 VH with T74K
# VL: B3 VL
# B6: HuAb360-6 (antibody, V domains shown)
# VH: B3 VH with T74K
# VL: B3 VL with A19V, I21M, L84V
# B7: HuAb360-2 (antibody, V domains shown)
# VH: B3 VH with M20V, A68V, L70M, A79V
# VL: B3 VL with A19V, I21M, L84V
# B8: HuAb360-1 (antibody, V domains shown)
# VH: B3 VH with M20V, A68V, L70M, A79V
# VL: B3 VL
# B9: Ab 307 (antibody, V domains shown)
# VH: DVKLVESGGGLVKPGGSLKLSCAASGFTFSSYTMSWVRQTPEKRLEWVATIIIGGSYTYYPDSVKGRFTISRDNAKNTLYLQMSSLKSEDTAMYYCTRLVKGNAMDYWGQGTSVAVSS
# VL: DIVMTQSPSSLTVTTGEKVTMSCKSSQSLLNSGNQKNYLSWYQQIPGQPPKLLFYWASTRESGVPDRFTGSGSGTDFTLTISNVQAEDLAVYYCQNDYSYPFTFGAGTKLELR
# B10: HuAb432-1 (antibody, V domains shown)
# VH: QVQLVQSGAEVKKPGSSVKVSCKASGYTFTSDVISWVRQAPGQGLEWMGESYLRNGNTYYAQKFQGRVTITADKSTSTAYMELSSLRSEDTAVYYCARSYYGNSFAYWGQGTLVTVSS
# VL: B3 VL with S26T, I59T, Q61E, L95Q, D97A, G99Y, F100Y, L102F
# B11: HuAb358-2 (antibody, V domains shown)
# VH: EVQLVESGGGLVQPGGSLRLSCAVSGFTFSSFGMHWVRQAPGKGLEWVAYISSGTTNIYYADSVKGRFTVSRDNAKNSLYLQMNSLRAEDTAVYYCVRSGYYGNSLDYWGQGTLVTVSS
# VL: DIVMTQSPDSLAVSLGERVTMNCKSSQSLFNSGNQRNYLTWYQQKPGQPPKLLIYWASTRESGVPDRFSGSGSGTDFTLTISSVQAEDVAVYYCQNVYIYPLTFGQGTKLEIK
# B12: HuAb376-2 (antibody, V domains shown)
# VH: EVQLLESGGGLVQPGGSLRLSCAASGFTFSSYTMSWVRQAPGKGLEWVATISSGVSYTYYADSVKGRFTISRDNSKNTLYLQMNSLRAEDTAVYYCTRLTKGNAMDYWGQGTLVTVSS
# VL: B11 VL with F30L, R36K, V97D, I99S, L102F
# B13: HuAb432-4 (antibody, V domains shown)
# VH: B10 VH with V20L, M48I, V68A, I70L
# VL: B11 VL with S26T, F30L, R36K, V97A, I99Y, L102F
# B14: HuAb307-1 (antibody, V domains shown)
# VH: B12 VH with S52I, S53I, V55G, T100V
# VL: B3 VL with T40S, I59T, Q61E, L95Q, G99S, F100Y, L102F
# B15: HuAb307-2 (antibody, V domains shown)
# VH: B12 VH with S52I, S53I, V55G, T100V
# VL: B3 VL with T40S, I54F, I59T, Q61E, L95Q, G99S, F100Y, L102F
# B16: HuAb432-2 (antibody, V domains shown)
# VH: B10 VH
# VL: B11 VL with S26T, F30L, R36K, V97A, I99Y, L102F
# B17: HuAb376-1 (antibody, V domains shown)
# VH: B12 VH
# VL: B3 VL with I59T, Q61E, L95Q, G99S, F100Y, L102F
# B18: HuAb432-3 (antibody, V domains shown)
# VH: B10 VH with V20L, M48I, V68A, I70L
# VL: B3 VL with S26T, I59T, Q61E, L95Q, D97A, G99Y, F100Y, L102F
# B19: HuAb358-1 (antibody, V domains shown)
# VH: B11 VH
# VL: B11 VL with V19A, M21I, V84L
# B20: Ab 360 (antibody, V domains shown)
# VH: VVQLQQSGPELVKPGASVKMSCKASGYTFTSYLMHWVRQKPGLGLDWIGYINPYNDGTNYNAKFIDKATLTSDKTSSTAYMELSSLTSEDSAIYYCTRGDYWGQGTSVTVSS
# VL: DIVMTQSPSSLAVTAGEQVTMSCKSSQSLLNSGNQKNYLTWYQQKPGQPPKLLIYWASIRQSGVPDRFTGSGSGTDFTLTISSVQAEDLAVYYCLNDYGFPLTFGAGTKLELK
# notes: also called 360-Chim
# B21: Ab 358 (antibody, V domains shown)
# VH: VVQLVESGGDFVQPGGSRKLSCAVSGFTFSSFGMHWVRQAPEKGLEWVAYISSGTTNIYYADTVKGRFTVSRDNPKNSLFLHMTSLRSEDTAMYYCVRSGYYGNSLDYWGQGTPLTVSS
# VL: DIVMTQSPSSLTVTAGEKVTMSCKSSQSLFNSGNQRNYLTWYQQKPGQPPKLLIYWASTRESGVPDRFTGSGSGTGFTLTISSVQAEDLAFYYCQNVYIYPLTFGLGTKLELR
# B22: 02-0307-5h antibody (antibody, V domains shown)
# VH: B12 VH with S52I, S53I, V55G, T100V
# VL: B11 VL with F30L, N31Q, R36K, T40S, I54F, V97D, I99S, L102F
# notes: also called 02-h1F06-5h
# B23: 02-0358-6h antibody (antibody, V domains shown)
# VH: B11 VH with N104Q
# VL: B11 VL
# B24: 02-0307-8h antibody (antibody, V domains shown)
# VH: B12 VH with S52I, S53I, V55G, T100V, N103Q
# VL: B11 VL with F30L, N31Q, R36K, T40S, I54F, V97D, I99S, L102F
# notes: also called 02-h1F06-8h
# B25: 02-0307-12h antibody (antibody, V domains shown)
# VH: B12 VH with S52I, S53I, V55G, T100V, N103S
# VL: B11 VL with F30L, N31S, R36K, T40S, I54F, V97D, I99S, L102F
# notes: also called 02-h1F06-12h
# B26: 02-0307-7h antibody (antibody, V domains shown)
# VH: B12 VH with S52I, S53I, V55G, T100V, N103Q
# VL: B11 VL with F30L, R36K, T40S, I54F, V97D, I99S, L102F
# notes: also called 02-h1F06-7h
# B27: 02-0307-11h antibody (antibody, V domains shown)
# VH: B12 VH with S52I, S53I, V55G, T100V, N103S
# VL: B11 VL with F30L, N31Q, R36K, T40S, I54F, V97D, I99S, L102F
# notes: also called 02-h1F06-11h
# B28: 02-0307-9h antibody (antibody, V domains shown)
# VH: B12 VH with S52I, S53I, V55G, T100V, N103Q
# VL: B11 VL with F30L, N31S, R36K, T40S, I54F, V97D, I99S, L102F
# notes: also called 02-h1F06-9h
# B29: 02-0358-4h antibody (antibody, V domains shown)
# VH: B11 VH
# VL: B11 VL with N31Q
# B30: 02-0307-10h antibody (antibody, V domains shown)
# VH: B12 VH with S52I, S53I, V55G, T100V, N103S
# VL: B11 VL with F30L, R36K, T40S, I54F, V97D, I99S, L102F
# notes: also called 02-h1F06-10h
# Molecular target: T1, human Claudin-18.2 (CLDN18.2) (human)
# T1 construct: On cells: fused to GFP in engineered HEK293T cells (clone C12), endogenous in HUPT4 and SNU601 cells; also called human CLDN18.2
# Assay: FACS, 1.5 ug antibody, HUPT4 cells (endogenous CLDN18.2)
# Description: FACS assays were carried out to determine relative antigen binding strengths of the humanized antibodies (at either 1.5 μg or 0.3 μg) for binding to CLDN18.2 as expressed by the indicated cancer cell lines.
row,FACS signal (relative antigen binding strength),Binder
1,27900,B1
2,10600,B2
3,27400,B3
4,28000,B4
5,28600,B5
6,34600,B6
7,24900,B7
8,26400,B8
9,34700,B9
10,30600,B10
11,29800,B11
12,28300,B12
13,23100,B13
14,30200,B14
15,32500,B15
16,36100,B16
17,29700,B17
18,27100,B18
19,52700,B19
20,26200,B20
21,33300,B21

# Molecular target: T1, human Claudin-18.2 (CLDN18.2)
# Assay: flow cytometry; HUPT4 over M202 [Cont.]
# Description: (§1) The samples were then measured by Intellicyt® iQue Advanced Flow Cytometry Platform.
row,ratio native,Binder
1,121,B22
2,79.9,B23
3,12.2,B24
4,9.89,B25
5,22.5,B26
6,1.52,B27
7,45.1,B28
8,94,B29
9,6.42,B30

# Molecular target: T1, human Claudin-18.2 (CLDN18.2)
# Assay: flow cytometry; HEK293T CLDN18.2 over HEK293T parental [Cont.]
# Description: as §1
row,ratio OE,Binder
1,408,B22
2,435,B23
3,166,B24
4,183,B25
5,326,B26
6,40,B27
7,273,B28
8,575,B29
9,202,B30

# Molecular target: T1, human Claudin-18.2 (CLDN18.2)
# Assay: FACS, 1.5 ug antibody, HEK293T-CLDN18.2 C12 clone cells
row,FACS signal (relative antigen binding strength),Binder
1,161000,B1
2,109000,B2
3,157000,B3
4,149000,B4
5,138000,B5
6,159000,B6
7,138000,B7
8,120000,B8
9,141000,B9
10,97400,B10
11,122000,B11
12,119000,B12
13,173000,B13
14,126000,B14
15,133000,B15
16,128000,B16
17,140000,B17
18,88800,B18
19,131000,B19
20,117000,B20
21,139000,B21
